# In IntAct's records for PubMed 29039417:
# B1: Protein PTHB1 (Homo sapiens), Q3SYG4 (parent)
# chain: MSLFKARDWWSTILGDKEEFDQGCLCLANVDNSGNGQDKIIVGSFMGYLRIFSPHPAKTGDGAQAEDLLLEVDLRDPVLQVEVGKFVSGTEMLHLAVLHSRKLCVYSVSGTLGNVEHGNQCQMKLMYEHNLQRTACNMTYGSFGGVKGRDLICIQSMDGMLMVFEQESYAFGRFLPGFLLPGPLAYSSRTDSFLTVSSCQQVESYKYQVLAFATDADKRQETEQQKLGSGKRLVVDWTLNIGEQALDICIVSFNQSASSVFVLGERNFFCLKDNGQIRFMKKLDWSPSCFLPYCSVSEGTINTLIGNHNNMLHIYQDVTLKWATQLPHIPVAVRVGCLHDLKGVIVTLSDDGHLQCSYLGTDPSLFQAPNVQSRELNYDELDVEMKELQKIIKDVNKSQGVWPMTEREDDLNVSVVVSPNFDSVSQATDVEVGTDLVPSVTVKVTLQNRVILQKAKLSVYVQPPLELTCDQFTFEFMTPDLTRTVSFSVYLKRSYTPSELEGNAVVSYSRPTDRNPDGIPRVIQCKFRLPLKLICLPGQPSKTASHKITIDTNKSPVSLLSLFPGFASQSDDDQVNVMGFHFLGGARITVLASKTSQRYRIQSEQFEDLWLITNELILRLQEYFEKQGVKDFACSFSGSIPLQEYFELIDHHFELRINGEKLEELLSERAVQFRAIQRRLLARFKDKTPAPLQHLDTLLDGTYKQVIALADAVEENQGNLFQSFTRLKSATHLVILLIALWQKLSADQVAILEAAFLPLQEDTQELGWEETVDAAISHLLKTCLSKSSKEQALNLNSQLNIPKDTSQLKKHITLLCDRLSKGGRLCLSTDAAAPQTMVMPGGCTTIPESDLEERSVEQDSTELFTNHRHLTAETPRPEVSPLQGVSE
# partner: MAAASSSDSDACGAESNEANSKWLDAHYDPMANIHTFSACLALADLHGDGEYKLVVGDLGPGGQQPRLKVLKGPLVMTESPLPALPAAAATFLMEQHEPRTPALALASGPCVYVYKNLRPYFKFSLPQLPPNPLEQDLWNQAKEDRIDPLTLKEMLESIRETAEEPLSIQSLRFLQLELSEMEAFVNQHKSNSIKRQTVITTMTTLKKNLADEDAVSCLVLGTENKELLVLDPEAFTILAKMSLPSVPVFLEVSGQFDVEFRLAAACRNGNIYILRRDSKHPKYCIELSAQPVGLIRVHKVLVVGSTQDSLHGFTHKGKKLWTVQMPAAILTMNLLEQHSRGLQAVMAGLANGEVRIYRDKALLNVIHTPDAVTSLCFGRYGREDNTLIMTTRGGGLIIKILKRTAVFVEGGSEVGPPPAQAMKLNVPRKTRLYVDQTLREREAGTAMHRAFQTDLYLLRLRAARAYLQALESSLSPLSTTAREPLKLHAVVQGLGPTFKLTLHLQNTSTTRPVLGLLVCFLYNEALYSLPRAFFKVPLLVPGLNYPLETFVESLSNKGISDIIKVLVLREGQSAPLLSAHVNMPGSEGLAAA
# Variants of: B1
# Conditions: with bbs1_human BBS1, Q8NFJ9
row,effect of a mutation on the interaction,Variant
1,with no effect,N800K
2,with no effect,P802A
3,with no effect,P802K
4,disrupting interaction strength,P802T
5,with no effect,K803E
6,with no effect,D804A
7,with no effect,D804E
8,with no effect,T805A
9,with no effect,T805E
10,with no effect,Q807A
11,with no effect,Q807K
12,with no effect,L808A
13,with no effect,L808K
14,with no effect,K810A
15,with no effect,H811E
16,with no effect,I812A
17,with no effect,I812E
18,with no effect,T813A
19,with no effect,T813E
20,with no effect,L814A
21,with no effect,L814E
22,with no effect,L814K
23,with no effect,L815A
24,with no effect,L815K
25,with no effect,C816A

row,effect of a mutation on the interaction,Variant
1,with no effect,C816K
2,with no effect,D817A
3,with no effect,R818A
4,with no effect,R818K
5,with no effect,L819A
6,with no effect,S820A
7,with no effect,S820K
8,with no effect,K821E
9,with no effect,G822A
10,with no effect,G822E
11,with no effect,G822K
12,with no effect,G823A
13,with no effect,G823K
14,with no effect,R824A
15,with no effect,R824E
16,with no effect,R824K
17,with no effect,L825E
18,with no effect,C826E
19,with no effect,C826K
20,with no effect,L827E
21,with no effect,S828A
22,with no effect,T829A
23,with no effect,T829E
24,with no effect,T829K
25,with no effect,D830A

row,effect of a mutation on the interaction,Variant
1,with no effect,D830K
2,with no effect,A831K
3,with no effect,A832E
4,with no effect,A833E
5,with no effect,A833K
6,with no effect,P834A
7,with no effect,Q835A
8,with no effect,Q835E
9,with no effect,T836E
10,with no effect,M837E
11,disrupting interaction strength,M837S
12,disrupting interaction strength,V838K
13,with no effect,M839A
14,with no effect,M839K
15,with no effect,P840E
16,disrupting interaction strength,P840K
17,disrupting interaction strength,G841E
18,with no effect,G841K
19,with no effect,G842E
20,with no effect,G842K
21,with no effect,C843A
22,with no effect,C843E
23,with no effect,C843K
24,with no effect,T844A
25,with no effect,T844E

row,effect of a mutation on the interaction,Variant
1,with no effect,T844K
2,with no effect,T845A
3,with no effect,T845E
4,with no effect,T845K
5,with no effect,I846E
6,with no effect,P847A
7,with no effect,P847E
8,with no effect,E848A
9,with no effect,S849A
10,with no effect,D850E
11,with no effect,L851A
12,with no effect,L851K
13,with no effect,E852A
14,with no effect,E852K
15,with no effect,S855A
16,with no effect,E857A
17,with no effect,Q858K
18,with no effect,D859A
19,with no effect,D859E
20,with no effect,S860E
21,with no effect,S860K
22,with no effect,T861A

# Continued, variant first:
row,Variant,effect of a mutation on the interaction
1,I801A,with no effect
2,I801E,with no effect
3,I801K,with no effect
4,P802E,with no effect
5,K803A,with no effect
6,D804F,disrupting interaction strength
7,D804K,with no effect
8,T805K,with no effect
9,S806A,with no effect
10,S806E,with no effect
11,S806K,with no effect
12,Q807E,with no effect
13,L808E,with no effect
14,K809A,with no effect
15,K809E,disrupting interaction strength
16,K810E,with no effect
17,H811A,with no effect
18,H811K,with no effect
19,I812K,with no effect
20,T813K,with no effect
21,L815E,with no effect
22,C816E,with no effect

row,Variant,effect of a mutation on the interaction
1,D817E,with no effect
2,D817K,with no effect
3,D817N,disrupting interaction strength
4,R818E,with no effect
5,L819E,with no effect
6,L819K,disrupting interaction strength
7,S820E,with no effect
8,K821A,with no effect
9,G823E,with no effect
10,L825A,with no effect
11,L825K,with no effect
12,C826A,with no effect
13,L827A,with no effect
14,L827K,with no effect
15,S828E,with no effect
16,S828K,with no effect
17,D830E,with no effect
18,A831E,with no effect
19,A832K,with no effect
20,A833S,disrupting interaction strength
21,P834E,with no effect
22,P834K,with no effect

row,Variant,effect of a mutation on the interaction
1,Q835K,with no effect
2,T836A,with no effect
3,T836K,with no effect
4,M837A,with no effect
5,M837K,with no effect
6,M837V,disrupting interaction strength
7,V838A,with no effect
8,V838E,with no effect
9,M839E,with no effect
10,P840A,with no effect
11,G841A,with no effect
12,G842A,with no effect
13,I846A,with no effect
14,I846K,with no effect
15,P847K,with no effect
16,E848K,with no effect
17,S849E,with no effect
18,S849K,with no effect
19,D850A,with no effect
20,D850K,with no effect
21,L851E,with no effect
22,E853A,with no effect

row,Variant,effect of a mutation on the interaction
1,E853K,with no effect
2,R854A,with no effect
3,R854E,with no effect
4,R854K,with no effect
5,S855E,with no effect
6,S855K,with no effect
7,V856A,with no effect
8,V856E,with no effect
9,V856K,with no effect
10,E857K,with no effect
11,Q858A,with no effect
12,Q858E,with no effect
13,D859K,with no effect
14,S860A,with no effect
15,T861E,with no effect
16,T861K,with no effect
17,E862A,with no effect
18,E862K,with no effect
19,L863A,with no effect
